{
  "source": "paper PMC7615931",
  "about": "(Science (New York, N.Y.), 2024)",
  "key": {"negative-staining EM": {"molecular_target": "the molecule itself", "experiment": "negative-staining EM"}, "cryo-EM structure": {"molecular_target": "the molecule itself", "experiment": "cryo-EM structure"}},
  "data": [
    {"protein": "β-arrestin 2 (βarr2), wild-type, full-length (natural protein, UniProt P32120 1-420, looked up) MGEKPGTRVFKKSSPNCKLTVYLGKRDFVDHLDKVDPVDGVVLVDPDYLKDRKVFVTLTCAFRYGREDLDVLGLSFRKDLFIANYQAFPPTPNPPRPPTRLQERLLRKLGQHAHPFFFTIPQNLPCSVTLQPGPEDTGKACGVDFEIRAFCAKSLEEKSHKRNSVRLVIRKVQFAPEKPGPQPSAETTRHFLMSDRSLHLEASLDKELYYHGEPLNVNVHVTNNSTKTVKKIKVSVRQYADICLFSTAQYKCPVAQVEQDDQVSPSSTFCKVYTITPLLSNNREKRGLALDGKLKHEDTNLASSTIVKEGANKEVLGILVSYRVKVKLVVSRGGDVSVELPFVLMHPKPHDHIALPRPQSAATHPPTLLPSAVPETDAPVDTNLIEFETNYATDDDIVFEDFARLRLKGLKDEDYDDQFC", "values": [
      {"measurement": "stoichiometry N", "setting": "negative-staining EM", "result": 3},
      {"measurement": "stoichiometry N", "setting": "cryo-EM structure", "result": 2}
    ]}
  ]
}
